{
  "source": "the supplement of paper PMC10567573",
  "parents": {"B1": {"name": "YPEL3 (parent)", "chain": "SKPKTFQAYLDDCHRRYSCAHCRA"}},
  "data": [
    {"variants_of": "B1", "test": "protein stability index of a GFP-peptide fusion (GPS, HEK-293T) (PSI 1-6); higher = more stable", "conditions": "c terminus: a fixed tail appended", "values": [
      {"variant": "SKPKTFQAYLDDCHRRYSCAHCRF", "protein stability index": 2.59},
      {"variant": "SKPKTFQAYLDDCHRRYSCAHCRQ", "protein stability index": 2.59},
      {"variant": "SKPKTFQAYLDDCHRRYSCAHCRY", "protein stability index": 2.86},
      {"variant": "SKPKTFQAYLDDCHRRYSCAHCRI", "protein stability index": 2},
      {"variant": "SKPKTFQAYLDDCHRRYSCAHCRW", "protein stability index": 2.39},
      {"variant": "SKPKTFQAYLDDCHRRYSCAHCRG", "protein stability index": 2.32},
      {"variant": "SKPKTFQAYLDDCHRRYSCAHCRE", "protein stability index": 1.71},
      {"variant": "SKPKTFQAYLDDCHRRYSCAHNRA", "protein stability index": 2.45},
      {"variant": "SKPKTFQAYLDDCHRRYSCAHPRA", "protein stability index": 2.61},
      {"variant": "SKPKTFQAYLDDCHRRYSCAHARA", "protein stability index": 2.04},
      {"variant": "SKPKTFQAYLDDCHRRYSCAHRRA", "protein stability index": 2.63},
      {"variant": "SKPKTFQAYLDDCHRRYSCAHFRA", "protein stability index": 2.32},
      {"variant": "SKPKTFQAYLDDCHRRYSCAHKRA", "protein stability index": 2.86},
      {"variant": "SKPKTFQAYLDDCHRRYSCAHIRA", "protein stability index": 2.69},
      {"variant": "SKPKTFQAYLDDCHRRYSCAHLRA", "protein stability index": 2.37},
      {"variant": "SKPKTFQAYLSDCHRRYSCAHCRA", "protein stability index": 1.9},
      {"variant": "SKPKTFQAYLNDCHRRYSCAHCRA", "protein stability index": 2.6},
      {"variant": "SKPKTFQAYLTDCHRRYSCAHCRA", "protein stability index": 2.14},
      {"variant": "SKPKTFQAYLYDCHRRYSCAHCRA", "protein stability index": 1.72},
      {"variant": "SKPKTFQAYLIDCHRRYSCAHCRA", "protein stability index": 2.92},
      {"variant": "SKPKTFQAYLLDCHRRYSCAHCRA", "protein stability index": 2.11},
      {"variant": "SKPKTFQAYLMDCHRRYSCAHCRA", "protein stability index": 2.47},
      {"variant": "SKPKTFQAYLGDCHRRYSCAHCRA", "protein stability index": 1.97},
      {"variant": "SKPKTFQAYLQDCHRRYSCAHCRA", "protein stability index": 2.21},
      {"variant": "HKPKTFQAYLDDCHRRYSCAHCRA", "protein stability index": 2.07},
      {"variant": "MKPKTFQAYLDDCHRRYSCAHCRA", "protein stability index": 2},
      {"variant": "KKPKTFQAYLDDCHRRYSCAHCRA", "protein stability index": 1.98},
      {"variant": "YKPKTFQAYLDDCHRRYSCAHCRA", "protein stability index": 1.99},
      {"variant": "PKPKTFQAYLDDCHRRYSCAHCRA", "protein stability index": 2.67},
      {"variant": "AKPKTFQAYLDDCHRRYSCAHCRA", "protein stability index": 2.11},
      {"variant": "DKPKTFQAYLDDCHRRYSCAHCRA", "protein stability index": 2.21},
      {"variant": "RKPKTFQAYLDDCHRRYSCAHCRA", "protein stability index": 1.92},
      {"variant": "SKPKTFQAYLDDCPRRYSCAHCRA", "protein stability index": 2.05},
      {"variant": "SKPKTFQAYLDDCSRRYSCAHCRA", "protein stability index": 2.06},
      {"variant": "SKPKTFQAYLDDCGRRYSCAHCRA", "protein stability index": 3.08},
      {"variant": "SKPKTFQAYLDDCRRRYSCAHCRA", "protein stability index": 1.73},
      {"variant": "SKPKTFQAYLDDCFRRYSCAHCRA", "protein stability index": 1.07},
      {"variant": "SKPKTFQAYLDFCHRRYSCAHCRA", "protein stability index": 1.7},
      {"variant": "SKPKTFQAYLDWCHRRYSCAHCRA", "protein stability index": 1.67},
      {"variant": "SKPKTFQAYLDGCHRRYSCAHCRA", "protein stability index": 2.64},
      {"variant": "SKPKTFQAYLDYCHRRYSCAHCRA", "protein stability index": 2.28},
      {"variant": "SKPKTFQAYLDACHRRYSCAHCRA", "protein stability index": 2.19},
      {"variant": "SKPKTFQAYLDVCHRRYSCAHCRA", "protein stability index": 1.96},
      {"variant": "SKPKTFQAYLDDCHRRYSCAWCRA", "protein stability index": 1.65},
      {"variant": "SKPKTFQAYLDDCHRRYSCAACRA", "protein stability index": 2.06},
      {"variant": "SKPKTFQAYLDDCHRRYSCAGCRA", "protein stability index": 1.28},
      {"variant": "SKPKTFQAYLDDCHRRYSCAFCRA", "protein stability index": 1.52},
      {"variant": "SKPKTFQAYLDDCHRRYSCAMCRA", "protein stability index": 1.18},
      {"variant": "SKPKTFQAYLDDCHRRYSCANCRA", "protein stability index": 1.57},
      {"variant": "SKPKTFQAYLDDCHRRYSCAQCRA", "protein stability index": 2},
      {"variant": "SKPKTFQAYLDDCHRRYSCALCRA", "protein stability index": 1.74},
      {"variant": "SKPKTFQIYLDDCHRRYSCAHCRA", "protein stability index": 1.81},
      {"variant": "SKPKTFQDYLDDCHRRYSCAHCRA", "protein stability index": 1.54},
      {"variant": "SKPKTFQWYLDDCHRRYSCAHCRA", "protein stability index": 2.09},
      {"variant": "SKPKTFQSYLDDCHRRYSCAHCRA", "protein stability index": 1.82},
      {"variant": "SKPKTFQAYLDDCHRRYGCAHCRA", "protein stability index": 2.5},
      {"variant": "SKPKTFQAYLDDCHRRYRCAHCRA", "protein stability index": 2.56},
      {"variant": "SKPKTFQAYLDDCHRRYYCAHCRA", "protein stability index": 1.48},
      {"variant": "SKPKTFQAYLDDCHRRYWCAHCRA", "protein stability index": 1.52},
      {"variant": "SKPKTFQAYLDDCHRRYECAHCRA", "protein stability index": 1.52},
      {"variant": "SKPKTFQAYLDDCHRRYSCAHCSA", "protein stability index": 3.52},
      {"variant": "SKPKTFQAYLDDCHRRYSCAHCPA", "protein stability index": 2.11},
      {"variant": "SKPKTFQAYLDDCHRRYSCAHCNA", "protein stability index": 2.91},
      {"variant": "SKPKTFQAYLDDCHRRYSCAHCMA", "protein stability index": 2},
      {"variant": "SKPKTFQAYLDDCHRRYSCAHCLA", "protein stability index": 2.37},
      {"variant": "SKPKTFQAYLDDCHRRYSCAHCGA", "protein stability index": 1.39},
      {"variant": "SKPKTFQAALDDCHRRYSCAHCRA", "protein stability index": 2.19},
      {"variant": "SKPKTFQAMLDDCHRRYSCAHCRA", "protein stability index": 1.89},
      {"variant": "SKPKTFQAVLDDCHRRYSCAHCRA", "protein stability index": 2.41},
      {"variant": "SKPKTFQAGLDDCHRRYSCAHCRA", "protein stability index": 2.85},
      {"variant": "SKPKTFQAILDDCHRRYSCAHCRA", "protein stability index": 2},
      {"variant": "SHPKTFQAYLDDCHRRYSCAHCRA", "protein stability index": 2},
      {"variant": "SNPKTFQAYLDDCHRRYSCAHCRA", "protein stability index": 2.34},
      {"variant": "SPPKTFQAYLDDCHRRYSCAHCRA", "protein stability index": 1.95},
      {"variant": "SGPKTFQAYLDDCHRRYSCAHCRA", "protein stability index": 2.34},
      {"variant": "SAPKTFQAYLDDCHRRYSCAHCRA", "protein stability index": 2.18},
      {"variant": "SSPKTFQAYLDDCHRRYSCAHCRA", "protein stability index": 1.8},
      {"variant": "SRPKTFQAYLDDCHRRYSCAHCRA", "protein stability index": 1.89},
      {"variant": "SLPKTFQAYLDDCHRRYSCAHCRA", "protein stability index": 1.85},
      {"variant": "SYPKTFQAYLDDCHRRYSCAHCRA", "protein stability index": 1.85},
      {"variant": "SCPKTFQAYLDDCHRRYSCAHCRA", "protein stability index": 2.38},
      {"variant": "STPKTFQAYLDDCHRRYSCAHCRA", "protein stability index": 2.19},
      {"variant": "SWPKTFQAYLDDCHRRYSCAHCRA", "protein stability index": 2.58},
      {"variant": "SFPKTFQAYLDDCHRRYSCAHCRA", "protein stability index": 1.88},
      {"variant": "SKPKTFQAYLDDCHERYSCAHCRA", "protein stability index": 3.59},
      {"variant": "SKPKTFQAYLDDCHARYSCAHCRA", "protein stability index": 2.1},
      {"variant": "SKPKTFQAYLDDCHHRYSCAHCRA", "protein stability index": 2.72},
      {"variant": "SKPKTFQAYLDDCHFRYSCAHCRA", "protein stability index": 2.07},
      {"variant": "SKPKTFQAYLDDCHPRYSCAHCRA", "protein stability index": 1.82},
      {"variant": "SKPKTFQAYLDDCHGRYSCAHCRA", "protein stability index": 1.88},
      {"variant": "SKPKTFQAYLDDCHDRYSCAHCRA", "protein stability index": 2.67},
      {"variant": "SKPKTFQAYLDDCHQRYSCAHCRA", "protein stability index": 1.65},
      {"variant": "SKPKTFQAYLDDCHRRYSDAHCRA", "protein stability index": 3.27},
      {"variant": "SKPKTFQAYLDDCHRRYSEAHCRA", "protein stability index": 3.18}
    ]}
  ]
}
